Data on two molecules can be found in paper doi:10.1101/2024.03.11.584335.

The target of data set [1] is T1, RPAcoreΔP (human, UniProt P27694;P15927;P35244 438-616;35-270;1-121). In words: BLI.
The target in data set [2] is T1, RPAcoreΔP. In words: BLI. This is another data set of the same source.
Data set [3] has as its target RPAcoreΔP,W (minimal trimerization core, domains C, D, E) (human, UniProt P27694;P15927;P35244 438-616;35-174;1-121). In words: BLI.
The target of data set [4] is RPAcore;PolαCD (catalytic domain of DNA polymerase alpha) (human;human, UniProt P27694;P15927;P35244;P09884 438-616;1-270;1-121;335-1257, |). In words: cryo-EM.

Substitutions are numbered along the chain they refer to. Where two headings read alike, the source gives them in different places.

T1 sequence (P27694 438-616, stated change not applied, chain 1 of 3): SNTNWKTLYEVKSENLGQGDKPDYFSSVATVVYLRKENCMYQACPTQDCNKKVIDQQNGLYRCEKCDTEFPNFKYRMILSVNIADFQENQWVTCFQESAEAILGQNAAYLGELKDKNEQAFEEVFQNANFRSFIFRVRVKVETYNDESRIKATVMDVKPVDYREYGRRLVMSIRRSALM
T1 sequence (P15927 35-270, stated change not applied, chain 2 of 3): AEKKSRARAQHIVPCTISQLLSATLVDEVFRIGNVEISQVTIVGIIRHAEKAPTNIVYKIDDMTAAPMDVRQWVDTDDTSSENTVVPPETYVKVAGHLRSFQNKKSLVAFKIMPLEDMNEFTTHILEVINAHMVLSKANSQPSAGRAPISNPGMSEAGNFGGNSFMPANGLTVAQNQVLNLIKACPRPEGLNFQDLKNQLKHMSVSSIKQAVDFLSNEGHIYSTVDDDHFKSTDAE
T1 sequence (P35244 whole entry, stated change not applied, chain 3 of 3): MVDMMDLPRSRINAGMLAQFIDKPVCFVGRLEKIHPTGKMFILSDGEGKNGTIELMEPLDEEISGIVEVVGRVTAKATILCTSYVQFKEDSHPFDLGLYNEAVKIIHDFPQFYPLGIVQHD
Sequence of RPAcore;PolαCD (catalytic domain of DNA polymerase alpha) (P27694 438-616, chain 1 of 4): as the sequence (P27694 438-616, stated change not applied, chain 1 of 3) above
Sequence of RPAcore;PolαCD (catalytic domain of DNA polymerase alpha) (P15927 whole entry, chain 2 of 4, the tested form may be a part): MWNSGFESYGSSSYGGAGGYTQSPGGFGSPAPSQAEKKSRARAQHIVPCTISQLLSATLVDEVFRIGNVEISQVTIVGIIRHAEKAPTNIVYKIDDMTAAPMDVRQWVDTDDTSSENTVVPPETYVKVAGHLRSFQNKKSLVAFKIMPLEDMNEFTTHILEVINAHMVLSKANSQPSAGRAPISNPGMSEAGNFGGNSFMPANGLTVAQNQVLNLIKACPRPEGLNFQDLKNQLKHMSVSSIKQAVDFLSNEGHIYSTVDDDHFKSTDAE
Sequence of RPAcore;PolαCD (catalytic domain of DNA polymerase alpha) (P35244 whole entry, chain 3 of 4, the tested form may be a part): as the sequence (P35244 whole entry, stated change not applied, chain 3 of 3) above
Sequence of RPAcore;PolαCD (catalytic domain of DNA polymerase alpha) (P09884 335-1257, chain 4 of 4): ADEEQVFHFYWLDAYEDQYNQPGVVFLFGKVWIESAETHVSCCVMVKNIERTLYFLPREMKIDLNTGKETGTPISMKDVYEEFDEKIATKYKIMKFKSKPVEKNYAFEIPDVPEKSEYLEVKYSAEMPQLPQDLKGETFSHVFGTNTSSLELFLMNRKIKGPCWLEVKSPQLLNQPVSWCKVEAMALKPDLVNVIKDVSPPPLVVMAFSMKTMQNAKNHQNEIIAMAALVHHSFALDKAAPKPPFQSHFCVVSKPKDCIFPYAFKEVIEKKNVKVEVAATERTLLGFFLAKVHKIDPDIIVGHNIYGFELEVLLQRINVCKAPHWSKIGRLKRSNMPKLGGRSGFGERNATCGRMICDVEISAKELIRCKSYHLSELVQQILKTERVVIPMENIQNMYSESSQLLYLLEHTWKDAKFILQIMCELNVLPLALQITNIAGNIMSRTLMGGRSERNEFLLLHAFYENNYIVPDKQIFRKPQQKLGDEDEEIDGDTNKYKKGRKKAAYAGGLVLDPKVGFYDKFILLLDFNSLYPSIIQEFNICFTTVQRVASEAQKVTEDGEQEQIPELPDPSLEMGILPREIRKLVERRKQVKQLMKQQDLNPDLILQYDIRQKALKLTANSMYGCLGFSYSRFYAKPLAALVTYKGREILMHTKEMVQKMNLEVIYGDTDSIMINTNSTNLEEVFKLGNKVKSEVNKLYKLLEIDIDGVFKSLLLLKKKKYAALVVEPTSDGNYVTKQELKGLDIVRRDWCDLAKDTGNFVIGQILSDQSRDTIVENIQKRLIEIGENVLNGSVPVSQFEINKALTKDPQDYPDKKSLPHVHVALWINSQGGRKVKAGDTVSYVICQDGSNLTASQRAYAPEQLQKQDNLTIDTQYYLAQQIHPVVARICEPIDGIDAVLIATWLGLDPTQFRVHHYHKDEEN
Sequence of RPAcoreΔP,W (minimal trimerization core, domains C, D, E) (P27694 438-616, stated change not applied, chain 1 of 3): as the sequence (P27694 438-616, stated change not applied, chain 1 of 3) above
Sequence of RPAcoreΔP,W (minimal trimerization core, domains C, D, E) (P15927 35-174, stated change not applied, chain 2 of 3): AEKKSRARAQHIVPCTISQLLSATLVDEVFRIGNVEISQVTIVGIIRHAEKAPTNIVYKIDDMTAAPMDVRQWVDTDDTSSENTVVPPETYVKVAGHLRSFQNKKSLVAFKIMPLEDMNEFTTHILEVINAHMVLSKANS
Sequence of RPAcoreΔP,W (minimal trimerization core, domains C, D, E) (P35244 whole entry, stated change not applied, chain 3 of 3, the tested form may be a part): as the sequence (P35244 whole entry, stated change not applied, chain 3 of 3) above

B1: T8:P3 template:primer (mixed)
DNA: AATCTAGTAACATAGTATACATAAGCGCTCCAGGC
RNA: GCCUGGAGCGC
modifications: P3 is a chimeric RNA-DNA primer (RNA/DNA boundary not in the material) with 3'-dideoxycytidine
With B1, the Kd amounted to 50.3 ± 6.6 nM in data set [1], 124 ± 15 nM in data set [2] and 90.2 ± 4.5 nM in data set [3].

B2: T9:P4 template:primer (mixed)
DNA: B1 DNA with A24G
RNA: GCCUGGAGCGC
modifications: P4 primer contains U (RNA-DNA chimera?) and 3'-dideoxycytidine
For the molecule B2, in data set [4], the binding result is listed as “binds”.
